Series [1] concerns the molecule itself. Briefly: cross-linking; 23 uM purified AbLrp^C6His dialyzed against 20 mM Hepes, 150 mM NaCl, pH 8.0; DSS (3 mM), 30 min at room temperature, quenched with Tris-Cl; SDS-PAGE (12.5%) and Western blot with anti-His antibodies; with leucine (5 mM), with or without DNA (300 ng) containing the Lrp binding site. A general note: Immunoblotting shows a protein as a band on a membrane.

Series [2] concerns the molecule itself. As to the kind of experiment: cross-linking; 23 uM purified AbLrp^C6His dialyzed against 20 mM Hepes, 150 mM NaCl, pH 8.0; DSS (3 mM), 30 min at room temperature, quenched with Tris-Cl; SDS-PAGE (12.5%) and Western blot with anti-His antibodies; without leucine, with or without DNA (300 ng) containing the Lrp binding site.

Where “and” joins values, the source holds several entries; their conditions need not be identical. Equal entries are not always repeated.

B1: A. baumannii DS002 Lrp protein (AbLrp^C6His), leucine responsive regulatory protein (natural protein, Acinetobacter baumannii DS002, UniProt V5VJ98 1-155, looked up)
chain: MRPLDRIDRMILDILQREGRIAISELASRVNLSTTPCSERVKRLERDGIIMGYYARLNPAYVDRNLLVFLEIKLSAKSGDVFDQVARDLVEIPEVLECHLISGEFDYLVKARLKEMSAYRRLLGDLLKKLPASASSHSYVVMEEVKETLYLDVSK
notes: Leucine responsive regulatory protein (Lrp) of Acinetobacter baumannii DS002; lrp gene amplified from chromosomal DNA with primers HS36 FP/HS36 RP and cloned in pET23b as NdeI and XhoI fragment (pHS10); not shown: His6, C-terminal, kept
B1: the stoichiometry N (usually the number of molecules, sites or subunits per partner or assembly) was 2 and 3 in series [1]; 4 in series [2].
